This note sets out measurements from the DeepSol protein solubility set.

The nature of this data set: soluble on expression in E. coli; label from the status in PepcDB or PDB records.
With “MSCINLPTVLPGSPSKTRGQIQVILGPMFSGKSTELMRRVRRFQIAQYKCLVIKYAKDTRYSSSFCTHDRNTMEALPACLLRDVAQEALGVAVIGIDEGQFFPDIMEFCEAMANAGKTVIVAALDGTFQRKPFGAILNLVPLAESVVKLTAVCMECFREAAYTKRLGTEKEVEVIGGADKYHSVCRLCYFKKASGQPAGPDNKENCPVPGKPGEAVAARKLFAPQQILQCSPAN”, the “soluble on expression in E. coli” value is listed as “soluble”.
Take “MSDALDDENVLCFRYKSYYIKDDGSRIDTLNEERIKHIVDFTLDKYLDATQNTPKFDNFENPVKEGFNSIFACESKEAAIEYYKEFKKQIEQKKLPIKIASIIAQTKVVMNKKLV”: the “soluble on expression in E. coli” value is listed as “soluble”.
In the case of “MSDATLHATDQNPDDFAVQIADQIESFLVAVTEVAKGDEPDSAVPFLLLEVSQLMLAGGRLGAHEDIVPDERYEPDPGPELDVDEIRENLARILDPVDVYSEVFDPYEPRKAPVPARISDDLTDVITDLRHGMVHYKAGRTTEALWWWQFSYFSNWGSTASATLRALQSVVAHVRLNQPLEELDGLDTDQELGEETLESEAGRVMVREIAAPLGLRPVKLEHHHHHH”, the “soluble on expression in E. coli” value is “soluble”.
As for “MSDESEALLRVDHVKYRKAGDGKSPIGRLALFTDFIEWRDNASPEVFTCKFIRINGQRVSPPHKSKVQLQLILKNEDQATFVFLNPSASKEDLVKERDAVKEALQSALVKHRHRVNELAKSVESQSKQVELQAKQKILQEDRNLEKLYQNLVATKLITPDDFWSDYYQKEGVSEDKIGINGAFLANIVQQEGTNGVRLNLNPEIIQAIYSTYPAGQYWQNRENKKKCKEILKFTIQCEYLTRKISRSENYIQKKNLELVPHEMSEENFWKKFFQSHYFHREREVLPNPKDPFAECVRDDEEEMTKMTAEKIQRKRFDLEHIDDNGLRDFIHKSESQQKSAKTTLIKRCNYLSEKILATSWRSGEAAPTTSAAANQKKGFGVLDRLVAETETRLESEDLATKEAEDEVQIVRISSSAKASQAKYSKPDMTRYKALVTDYFQNSSVEDILHRNEMLLDQQEMETWEMEEAMETDNNEVPPPENWCQSAGDLAKVRDVHSAVREICRQFWKSFPPIDKASEEKLNRMAGTLSKYRDDIRNSDISKENLTHCIQMIDLAVDKFEAYEMKKMK”, the entry is “not soluble”; as for “MSDESPAFALHSGSSRQRKSLEFRFQQSPRWAPYSSASDGNEQKTSLVNNSLTRPNSSNPQCLNEENGFDRDSTAISTSFRSLLSLSESSVPWETPTNNQSSSLTHCSYPRVFCNPVSVCENPEPDHTQEDSSTNPGSSIMMSTRNHQGSPVEEEVSPNSSSNDMLLDVERSNDTEVANPRSEQGSMTHQRCGICKKLLSQKSPWSSYKILRSRDMPATGVFPCHHVYHVECLDKATPTAQTRDPSCPVCSNTIGVMEQPLIAPETLQMALRSLRRSRTALELETVRVPSNDNQRRHNTRRSHKWDKLSCCLNISFSSSS”, “soluble”; as for “MSDFEETIRRLQSEKGVVGIIVVDSAGRVIHSTIDSDATQSHTAFLQQLCEKTKTSIRELDSSNDLTFLRLRTKKNEIMIAPDKDHVIMVIKDLS”, “not soluble”.
Consider “MSDGERVLKIPVEYFEDGWKKGEAVITKDAISFAGKTIRFKEIQDLERLKHEGRDAIRIKKDADYFIDFGSRQAQIFRYLAFNLKSDRFAVYFLSPATRGGVVVSDSKWEKGYLSITDEALWFLSSSKQIRISIQNLGSVEKDIRTVGKKQRVVLVVTHVENGEVITSFVLCPETTMDMLQEYIQNFIEKSKPKEKLSEVEEQILTMVYTGVDSVSVESILGVTTEELNKMYDRLVNLGLARVVKIRKEIELTPRGVALVSEIMKKAAR”, for which the “soluble on expression in E. coli” value is listed as “not soluble”.
Regarding “MSDGQLVQRRRKAEEPVTEKVDEASGDSAQSSDQEDNDKGTRLTLMEQILLLGLKDREGYTSFWNDCISSGLRGCVLIELVLRGRIQLEGGGMRRKNLLNRKVTVKSSEPTGDVILDEALRHMKETNPPETVTSWIEYLSGETWNPLKLRYQLRNVRERLAKNLVEKGVLTTDKQNFLLFEITTHPLSDGNQKTKLIKEVQEAVLGKWTNDVHRMDKKMLSLIVLAHASDVLENAFAPLSDQDYEVKQMLEILFFSGKLAHFEPKNVAMKRVRSLLDLDYDQQAEKKGNDVMWAVFEAFSK”, the “soluble on expression in E. coli” value was “soluble”.
Under “MSDIFNSPQNKASILTALMKSTTGDVEDVLIPKRFRPAKDPLDSPQAAAQFLKDNKYRILRPRAIPTMVELETDAALPRLRQMVEDGKLKDTVSVPEGTTAFYPKYYPFHKPDHDEVGTFGAPDITLLKQLTFFLLENDFPTGPETLRQVREAIATLQYGSGSYSGQLNRLLAMKGVATGRNPNKTPKTVGYTNEQLAKLLEQTLPINTPKHEDPDLRWAPSWLINYTGDLSTDKSYLPHVTIKSSAGLPYIGKTKGDTTAEALVLADSFIRDLGRAATSADPEAGVKKTITDFWYLSCGLLFPKGERYTQVDWDKKTRNIWSAPYPTHLLLSMVSTPVMNESKLNITNTQTPSLYGFSPFHGGMDRIMTIIRDSLDNDEDLVMIYADNIYILQDNTWYSIDLEKGEANCTPQHMQAMMYYLLTRGWTNEDGSPRYNPTWATFAMNVAPSMVVDSSCLLMNLQLKTYGQGSGNAFTFLNNHLMSTIVVAEWVKAGKPNPMTKEFMDLEEKTGINFKIERELKNLRETIVEAVETAPQDGYLADGSDLPPIRPGKAVELDLLGWSAIYSRQMEMFVPVLENERLIASAAYPKGLENKALARKPGAEIAYQIVRYEAIRLVGGWNNPLLETAAKHMSLDKRKRLEVKGIDVTGFLDDWNNMSEFGGDLEGITLSEPLTNQTLVDINTPLDSFDPKARPQTPRSPKKTLDEVTTAITSGTYKDPKSAVWRLLDQRTKLRVSTLRDQALALKPASSSVDNWAEATEELAQQQQLLMKANNLLKSSLTETREALETIQSDKIIAGKSNPEKNPGTAANPVVGYGEFSEKIPLTPTQKKNAKRREKQRRNQ” stands “not soluble”; under “MSDITLDIADFHWVTQILDTMDSGLIVLDPEYNVCVWNSFMQSYSGVLSQDILGQCLFDHFDELPRTWLETKLKASADLETRSFSSWENRPYLFKFNNFSPVSNSCDFMFQDIVITPLRSLSGEVSHIAIQVNDVSETARNRIHLRETNQHLSEISRKDGL”, “not soluble”; under “MSDKFNQFINRVLSHEGGYANHPKDPGGETNWGITKRTAQANGYNGSMRAMTREQAISIYRKAFWERYRADQMPEAVAFQFFDACVNHGYGNAARMLQRAAGVPDDGVIGAVSLKAINSLPENDLLLRFNAERLVFYTKLGTFTSFGKGWVRRVAQNLIHASADNTD”, “soluble”.
Turning to “MSDNAQLTGLCDRFRGFYPVVIDVETAGFNAKTDALLEIAAITLKMDEQGWLMPDTTLHFHVEPFVGANLQPEALAFNGIDPNDPDRGAVSEYEALHEIFKVVRKGIKASGCNRAIMVAHNANFDHSFMMAAAERASLKRNPFHPFATFDTAALAGLALGQTVLSKACQTAGMDFDSTQAHSALYDTERTAVLFCEIVNRWKRLGGWPLPAAEEV”, the “soluble on expression in E. coli” value is reported as “not soluble”.
As for “MSDNLSARWHRILDMTNRETSDDVVIARSSFDDFSQSTPWRKFEISCGNRSFFVNPGWLAELSPYFADELYVRKPNVQRYVIDQATPDEVLEFLRCITFCPMRKPLTVKNVSLVLTFANRFEMRPVQARCENFIAQNATSLSRDKTKLFQVTCAMSQCDPNSSTMSVLVDKLAGIKDDELSRLHFAEMPGDVVAEVYAQKIQRTKDKKAQRQAGASDETAAGCCFMQWASSLFNRRRQRNQADQSILPPSGDQQHHRSELHA”, the entry is “not soluble”; as for “MSDPRPVVARCEGMFPADLARYEAQRTRKGGDLGHIDASRSHLNRPLLGEADWAKQAMAEIEAMRAENYADELEALQRRGRKKEIQKRMVEGPKDPWRASRHGPLREIILTAHKDWFNEIVFDGNRMDFAARERAFEDRAVAWLQQTFGDDIVHARADLDETTYHIHAVLVPRAVVKVNGATRRMLQPSIHPLIEDYEKLQDSVGAWFSAIGLARGEKRAEAIREAAAKGDPIPKKRHHCRPSDWRRRQEAEVIRQRAEVEAREAATAETAAALDARRADLAHHEERLAAEDARLSAVAATRRAEAGRLDHRVEAVVARETVADERMAEADAVLAVAEGPGAGAFDIDDAGGTPMLTERPENPSLLARLKRPVAGSDRGRARAVAALGAAWTRLRKAAGEAAEARLAREHEDLRKADEALLEVARTLPETARERIARARPTIARSLTGIGLTLRRLRGRDGGAQRDESGTGEKLEHHHHHH”, “soluble”; as for “MSDSSSSDGEDNQKFLGNRKKNLTKKKVVTEEIEKDDEEDVKEKSFAELGVSQPLCDACQRLGWMKPSKIQQAALPHALQGKDVIGLAETGSGKTGAFAIPVLQSLLDHPQAFFCLVLTPTRELAFQIGQQFEALGSGIGLIAAVIVGGVDMAAQAMALARRPHIIVATPGRLVDHLENTKGFNLKALKFLIMDEADRILNMDFEVELDKILKVIPRERRTYLFSATMTKKVSKLERASLRDPARVSVSSRYKTVDNLKQHYIFVPNKYKETYLVYLLNEHAGNSAIVFCATCATTMQIAVMLRQLGMQAVPLHGQMSQEKRLGSLNKFKSKAREILVCTDVAARGLDIPHVDMVINYDMPSQSKDYVHRVGRTARAGRSGIAITVVTQYDVEAYQKIEANLGKKLDEYKCVENEVMVLVERTQEATENARIEMKEMDEKKKSGKKRRQNDDFGDTEESGGRFKMGIKSMGGRGGSGGGRGGKKKKMSK”, “soluble”.
Under “MSDTPAQTPEPSKKTPEPSGVDLARVALRAAKEQARARGDAAQQKRQARRGGLRSGARADGRDPMALGAAINRLLTERGWETPAAVGGVMGRWPQIVGEDLAKHCVPQRYDEDERVLTVQCDSTAWATQLRLLAPQLVARLNEDLGHGTVRLLKVQGPGGPARRYGPLRAPGSTGPGDTYG” stands “not soluble”.
As to “MSDTPQAILLMGPTASGKTGLALELARRFPVEIVSVDSALVYRDMDIGTAKPTAEEMAACPHHLIDVISPLQSYSAAQFHADANRLIADIQARGKLPLLVGGTMLYYKALLEGLSDLPQADAALRAELDADAALLGWPAMHARLAELDPATASRLNPNDSQRIHRALEVCLLSGKPMSELIAQGKEAAAGFRFLPLALVPRERGWLHARIAERFRIMLEQGFLDEVSRLRAKYPELTLNLPSMRCVGYRQAWEHQDGLYGHDEFVERGVAATRQLAKRQLTWTRSLDAIPVDAQRDGLAGLLGDAVDDFLAGRPPAESLRYAGDF”, the “soluble on expression in E. coli” value is recorded as “soluble”.
As for “MSDVSRILKEARSQSRLTTLDYAEQIFDDFMELHGDRHFADDGAIVGGIGLLDGQAVTVIGVQKGKNLQDNLNRNFGQPNPEGYRKALRLMKQAEKFKRPVVTFINTAGAYPGIGAEERGQGEAIARNLLEMSDLKVPIIAIIIGEGGSGGALALAVADKVWMLEHTMYAVLSPEGFASILWKDGSRSIEAAELMKITAGELLKMEVVDKVIPEHGYFSSEIIQMLKTNLIEELKNLDQYPLNDLLEKRYQRFRKY”, the entry is “not soluble”; as for “MSDYENDDECWNVLEGFRVTLTSVIDPSRITPYLRQCKVLNPDDEEQVLSDPNLVIRKRKVGVLLDILQRTGHKGYVAFLESLELYYPQLYKKVTGKEPARVFSMIIDASGESGLTQLLMTEVMKLQKKVQDLTALLSSKDDFIKELRVKDSLLRKHQERVQRLKEECEAGSRELKRCKEENYDLAMRLAHQSEEKGAALMRNRDLQLEIDQLKHSLMKAEDDCKVERKHTLKLRHAMEQRPSQELLWELQQEKALLQARVQELEASVQEGKLDRSSPYIQVLEEDWRQALRDHQEQANTIFSLRKDLRQGEARRLRCMEEKEMFELQCLALRKDSKMYKDRIEAILLQMEEVAIERDQAIATREELHAQHARGLQEKDALRKQVRELGEKADELQLQVFQCEAQLLAVEGRLRRQQLETLVLSSDLEDGSPRRSQELSLPQDLEDTQLSDKGCLAGGGSPKQPFAALHQEQVLRNPHDAGLSSGEPPEKERRRLKESFENYRRKRALRKMQKGWRQGEEDRENTTGSDNTDTEGS”, “soluble”.
